These results are taken from patent US20130280250A1.

Test [1] deals with CD20 (human) (UniProt P11836). As to the kind of experiment: Scatchard analysis, radio-iodinated sample on Raji cells; apparent association constant.
Test [2] concerns the target CD20 (human) (UniProt P11836). As to the kind of experiment: flow cytometry on Daudi cells, PE-anti-Fab. In general terms: In flow cytometry, cells or beads pass a laser one at a time.
The target in test [3] is CD20 (human) (UniProt P11836). As to the kind of experiment: cell-based or functional assay.
Test [4] addresses gp41 of HIV-1IIIB (HIV-1IIIB) (UniProt P03377). As to the kind of experiment: cell-based or functional assay.
Test [5] concerns the target gp41 of HIV-1 6794 (HIV-1 6794). As to the kind of experiment: cell-based or functional assay.

Regarding “Hex-hA20 (hexavalent anti-CD20 antibody, six Fabs with one Fc)”, the Ka in test [1] was determined as 3.9e+08 M⁻¹. In test [2], this substance gave a greater fluorescence intensity than veltuzumab (PE-anti-Fab) of 40 to 50%. In addition, in test [3], the EC50, inhibition of proliferation of Daudi cells (4-d MTS assay) came to 0.15 nM; the EC50, inhibition of proliferation of Raji cells (4-d MTS assay) came to 0.064 nM; the EC50, inhibition of proliferation of Ramos cells (4-d MTS assay) was determined as 0.15 nM; the EC50, viable cell counting assay, Ramos, 3 days came out at 0.17 nM. The inhibition of cell proliferation at 0.5 nmol/L, viable cell counting, Raji and Ramos in test [3] is over 50%.
Regarding “T20 HIV fusion inhibitor (enfuvirtide, FUZEON) (peptide)”, the EC50 estimated, neutralization of HIV-1IIIB in Jurkat T cells, 50TCID50 in test [4] was 9 nM. Moreover, in test [5], the EC50 estimated, neutralization of HIV-1 6794 in PBMCs, 50TCID50 is 9 nM and the EC50 estimated, neutralization of HIV-1 6794 in PBMCs, 100TCID50 was 9 nM.
Regarding hLL2-(T20)4, in test [4], the EC50 estimated, neutralization of HIV-1IIIB in Jurkat T cells, 50TCID50 is under 0.2 nM and the EC50 estimated, neutralization of HIV-1IIIB in Jurkat T cells, 100TCID50 was 0.1 nM. Also, in test [5], the EC50 estimated, neutralization of HIV-1 6794 in PBMCs, 50TCID50 was under 0.2 nM and the EC50 estimated, neutralization of HIV-1 6794 in PBMCs, 100TCID50 is under 0.2 nM.
